This note sets out measurements from patent publication US20260028400A1 (AIMED BIO, published 2026).

Where a chain is given by its changes, count along the chain named.

B1: P015022 scFv (scFv, V domains shown)
VH: EVQLLESGGGLVQPGGSLRLSCAASGFTFSNYDMSWVRQAPGKGLEWVSSISSNGGSTYYADSVKGRFTISRDNSKNTLYLQMNSLRAEDTAVYYCAKCLLQFDYWGQGTLVTVSS
VL: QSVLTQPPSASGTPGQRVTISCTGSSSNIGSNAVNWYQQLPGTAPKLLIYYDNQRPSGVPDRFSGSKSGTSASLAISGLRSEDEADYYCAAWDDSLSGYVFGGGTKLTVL
notes: HA-tagged scFv
B2: P015016 scFv (scFv, V domains shown)
VH: EVQLLESGGGLVQTGGSLRLSCAASGFTFSDYAMSWVRQAPGKGLEWVSAISHGGSSKYYADSVKGRFTISRDNSKNTLYLQMNSLRAEDTAVYYCARVSLDFDYWGQGTLVAVSS
VL: QSVLTQPPSASGTPGQRVTISCSGSSSNIGSNTFNWYQQLPGTAPKLLIYADSHRPSGVPDRFSGSKSGTSASLAISGLRSEDEADYYCAAWDASLSAYVFGGGTKLTVL
notes: HA-tagged scFv
B3: P015017 scFv (scFv, V domains shown)
VH: EVQLLESGGGLVQPGGSLRLSCAASGFTFSGYAMSWVRQAPGKGLEWVSVISPGSGSKYYADSVRGRFTVSRDNSKNTLYLQMNSLRAEDTAVYYCARYPLLRYAGALYSAYAMDVWGQGTLVTVSS
VL: B2 VL with T33Y, F34V, N35S, D52N, A90G, A94S, S97N, A98G
notes: HA-tagged scFv
B4: P015042 scFv (scFv, V domains shown)
VH: EVQLLESGGGLVQPGGSLRLSCAASGFTFSDYAMSWVRQAPGKGLEWVSVISSDGGSIYYADSVKGRFTISRDNSKNTLYLQMNSLRAEDTAVYYCAKDRSRDMEVDFDYWGQGTLVTVSS
VL: B2 VL with T33Y, F34V, N35T, A51D, D52S, H54Q, A90G, A91T, A94Y, A98G
notes: HA-tagged scFv
B5: P015039 scFv (scFv, V domains shown)
VH: EVQLLESGGGLVQPGGSLRLSCAASGFTFSDYAMSWVRQAPGKGLEWVSWISPGGGNTYYADSVKGRFTISRDNSKNTLYLQMNSLRAEDTAVYYCAKGALMCLSATCSSDYGMDVWGQGTLVTVSS
VL: QSVLTQPPSASGTPGQRVTISCTGSSSNIGNNAVSWYQQLPGTAPKLLIYSDNQRPSGVPDRFSGSKSGTSASLAISGLRSEDEADYYCGTWDYSLNGYVFGGGTKLTVL
notes: HA-tagged scFv
B6: P015023 scFv (scFv, V domains shown)
VH: EVQLLESGGGLVQPGGSLRLSCAASGFTFSGYDMSWVRQAPGKGLEWVSGISHDGRSKYYADSVKGRFTVSRDNSKNTLYLQMNSLRAEDTAVYYCAKDVPFKMRFIFDYWGQGTLVTVSS
VL: B2 VL with I20L, S23T, F34V, N35Y, H54Q, A90G, A91S, A94S, S97N
notes: HA-tagged scFv
B7: P015028 scFv (scFv, V domains shown)
VH: EVQLLESGGGMVQTGGSLRLSCAASGFTFSDYAMSWVRQAPGKGLEWVSAISYDNGNTYYADSVKGRFTISRDNSKNALYLQMNSLRAEDTAVYYCAKVNHRFDYWGQGTLVTVSS
VL: B2 VL with D52N, A91S, A98G
notes: HA-tagged scFv
B8: P015024 scFv (scFv, V domains shown)
VH: EVQLLESGGGLVQPGGSLRLSCAASGFTFSDYYMSWVRQAPGKGLEWVSLISPGSDSKYYADSVKGRFTISRDNSKNTLYLQMNSLRAEDTAVYYCAKIEPDFDYWGQGTLVTVSS
VL: B2 VL with A91T, A94Y
notes: HA-tagged scFv
B9: P015020 scFv (scFv, V domains shown)
VH: B1 VH with N31G, D33Y, S50V, S53H, N54D, G56S, C99V, L100K, L101Y, Q102I
VL: B2 VL with S23T, S31N, F34V, H54N, A90D, A91T, A94S, S97N
notes: HA-tagged scFv
B10: P015004 scFv (scFv, V domains shown)
VH: EVQLLESGGGLVQPGGSLRLSCAASGFTFSDYAMAWVRQAPGKGLEWVSIIYPGDSETIYSPSFEGRFTISRDNSKNTLYLQMNSLRAEDTAVYYCARDTYWEGYFDLWGQGTLVTVSS
VL: EIVLTQSPGTLSLSPGERATLSCRASQGISNYLAWYQQKPGQAPRLLIYDASNLESGIPDRFSGSGSGTDFTLTISRLEPEDFAVYYCQQYANLPYTFGQGTKVEIK
notes: HA-tagged scFv
B11: P015018 scFv (scFv, V domains shown)
VH: EVQLLESGGGLVQPDGSMRLICAASGFTFSSYAKHWVRQAPGKGLEWVSEIYTSGSTNYNPSLKSRFTISRDNSKNTLYLQMNSLRAEDTAVYYCARDTWWEGYFDLWGQGTLVTVSS
VL: B10 VL with G28S, I29V, N31T, N53S, Y91S, A92Y, Y96H
notes: HA-tagged scFv
B12: P015014 scFv (scFv, V domains shown)
VH: EVQLLESGGGLVQPGGSLRLSCAVSGFTFSSYSMSWVRQAPGKGLEWVSAISPGDSNKYYADSVKGRFTISRDNSKNTLYLQINSLRAEDTAVYYCARTFPYFDYWGQGTLVTVSS
VL: QSVLTQPPSASGTPGERVTISCSSSSSNIGSNYVNWYQQLPGTAPKLLIYDNSQRPSGVPDRFSGSKSGTSASLAISGLRSEDEADYYCGSWDDSLSGYVFGGGTKLTVL
notes: HA-tagged scFv
B13: P015044 scFv (scFv, V domains shown)
VH: EVQLLESGGGLVQPGGSLRLSCAASGFTFSNYAMHWVRQAPGKGLEWVSIIYPDDDTRYNPSFRGRFTISRDNSKNTLYLQMNSLRAEDTAVYYCARDLLYAGDYWGQGTLVTVSS
VL: QSVLTQPPSASGTPGQRVTISCGGNNIESKAVHWYQQLPGTAPKLLIYANNKRPSGVPDRFSGSKSGTSASLAISGLRSEDEADYYCQSYDSNKVVFGGGTKLTVL
notes: HA-tagged scFv
B14: P015021 scFv (scFv, V domains shown)
VH: EVQLLESGGGLVQPGGSLRLSCAASGFTFSSYAMSWVRQAPGKGLEWVSWISPGGGNIYYADSVKGRFTISRDNSKNTLYLQMNSLRAEDTAVYYCARSQSGFDYWGQGTLVTVSS
VL: B5 VL with T23S, A33S, S35T, S51Y, N53S, Q54H, T91A, Y94S
notes: HA-tagged scFv
B15: P015006 scFv (scFv, V domains shown)
VH: EVQLLESGGGLVQPGGSLRLSCAASGFTFSNYSMSWVRQAPGKGLEWVSAISHGSGSIYYADSVKGRFTISRDNSKNTLYLQMNSLRAEDTAVYYCAKPISAWSHIRMSYAYGMDVWGQGTLVTVSS
VL: B2 VL with S23T, T33Y, F34V, N35S, Q38R, A51S, H54N, A91T
notes: HA-tagged scFv
B16: P015013 scFv (scFv, V domains shown)
VH: EVQLLESGGGLVQPGGSLRLSCAASGFTFSSYDMSWVRQVPGKGLEWVSWISHGGGSIYYADSVKGRFTISRDNSKNTLYLQMNSLRAEDTAVYYCARDLSNRLFTGFDYWGQGTLVAVSS
VL: B5 VL with T23S, N31S, A33S, S35Y, L47P, N53S, Q54H, G98A
notes: HA-tagged scFv
B17: P015009 scFv (scFv, V domains shown)
VH: EVQLLESGGGLVQPGGSLRLSCAASGFTFSNYSMSWVRQAPGKGLEWVSGIYSGNSNTYYADSVKGRFTISRDNSKNTLYLQMNSLRAEDTAVYYCAKDSRATHHRWHYYDNAMDVWGQGTLVTVSS
VL: B5 VL with N31S, A33Y, Q38R, N53S, Q54N, Y94S, N97S
notes: HA-tagged scFv
B18: P015003 scFv (scFv, V domains shown)
VH: EVQLLESGGGLVQPGGSLRLSCAASGFTFSSYAMSWVRQAPGKGLEWVSGISPGGSSKYYADSVKGRFTISRDNSKNTLYLQMNSLRAEDTAVYYCARGPHRAIDTAFDYWGQGTLVTVSS
VL: B2 VL with S23T, T33Y, F34V, N35S, Q38R, A51S, H54N, A91T
notes: HA-tagged scFv
B19: P015011 scFv (scFv, V domains shown)
VH: EVQLLESGGGLVQPGGSLRLSCAASGFTFSNYAMSWVRQAPGKGLEWVSGISPDGGSIYYADSVKGRFTISRDNSKNTLYLQMNSLRAEDTAVYYCAKAARLSPSMNYSYAYGMDVWGQGTLVTVSS
VL: B5 VL with A33Y, N53S, Q54H
notes: HA-tagged scFv
B20: P015001 scFv (scFv, V domains shown)
VH: EVQLLESGGGLAQPGGSLRLSCAASGFTFSNYDMSWVRQAPGKGPEWVSGIYSGNSNTYYADSVKGRFTISRDNSKNTLYLQMNSLRAEDTAVYYCARDLQYTEWAGFDYWGQGTLVTVSS
VL: B2 VL with T33D, F34V, N35T, A51D, H54K, A94D, A98G
notes: scFv of a phage-library clone from a bacterial extract, with HA tag

T2 sequence (Q01973 39-151 limits assumed): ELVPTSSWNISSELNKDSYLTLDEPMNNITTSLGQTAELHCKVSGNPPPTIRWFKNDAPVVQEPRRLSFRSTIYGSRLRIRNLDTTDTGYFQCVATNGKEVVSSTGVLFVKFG
T3 sequence (Q01973 165-305 limits assumed): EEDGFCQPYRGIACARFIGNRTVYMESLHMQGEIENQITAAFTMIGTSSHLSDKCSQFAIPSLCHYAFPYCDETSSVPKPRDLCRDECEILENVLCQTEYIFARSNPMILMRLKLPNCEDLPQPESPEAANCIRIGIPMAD

The target in the first experiment is T1, FZD+KRD (human, UniProt Q01973).
T1 construct: frizzled plus kringle domains, His tag; also called FK domain; human ROR1-frizzled-kringle domain
T1 sequence (Q01973 165-395 limits assumed): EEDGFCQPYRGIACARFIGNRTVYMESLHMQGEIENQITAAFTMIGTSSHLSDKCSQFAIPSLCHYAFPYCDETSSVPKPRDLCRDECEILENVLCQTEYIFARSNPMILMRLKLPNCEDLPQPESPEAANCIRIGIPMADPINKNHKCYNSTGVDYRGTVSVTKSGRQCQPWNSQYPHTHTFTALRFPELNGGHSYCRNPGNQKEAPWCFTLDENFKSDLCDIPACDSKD
Kind of experiment: scFv ELISA on coated domain, anti-HA-HRP, OD450. The protocol: (§1) Thereafter, the plate was treated with each scFv and reacted for 2 hours, followed by washing four times using PBST and distilled water. After binding at room temperature for 1 hour using an HRP-conjugated anti-HA antibody (Roche, 12013819001, Anti-HA-Peroxidase, High Affinity) capable of binding to the HA tag, washing was performed six times using PBST and distilled water. After color development by adding TMB substrate solution (Thermo Scientific, 34029, 1-Step™ Ultra TMB-ELISA Substrate Solution), the color reaction was stopped with stop solution (Invitrogen, SS04, ELISA Stop Solution), and the absorbance was measured at OD 450 nm. The scFv binding to each domain was analyzed through ELISA.
In general terms: In an ELISA, binding on a coated surface is turned into a signal by an enzyme label.
B1: the binding result is “no binding”.

In the case of B2, the binding result is given as “no binding”.

Consider B3, for which the binding result is reported as “no binding”.

In the case of B4, the binding result is given as “no binding”.

In the case of B5, the binding result is “no binding”.

As to B6, the binding result was “no binding”.

For the molecule B7, the binding result was “no binding”.

Consider B8, for which the binding result is given as “no binding”.

Regarding B9, the binding result was “no binding”.

As for B10, the binding result is listed as “no binding”.

Regarding B11, the binding result is recorded as “no binding”.

Turning to B12, the binding result is on record as “no binding”.

Consider B13, for which the binding result is listed as “no binding”.

The next experiment addresses T2, Ig-like (human, UniProt Q01973).
T2 construct: Ig-like domain, His tag; also called Ig-like domain; human ROR1-immunoglobulin domain
Briefly: scFv ELISA on coated domain, anti-HA-HRP, OD450. The protocol: as §1
With B14, the binding result is recorded as “no binding”.

As to B15, the binding result is reported as “no binding”.

With B2, the binding result is “binds”.

Take B16: the binding result is “no binding”.

Turning to B3, the binding result is given as “binds”.

As to B5, the binding result is listed as “binds”.

As to B17, the binding result is listed as “no binding”.

As to B18, the binding result is listed as “no binding”.

Take B10: the binding result is “no binding”.

In the case of B11, the binding result is “no binding”.

The next experiment has as its target T3, FZD (human, UniProt Q01973).
T3 construct: frizzled domain, His tag; also called Frizzled domain; human ROR1-frizzled domain
Kind of experiment: scFv ELISA on coated domain, anti-HA-HRP, OD450. The protocol:
as §1
As to B1, the binding result is on record as “no binding”.

Consider B15, for which the binding result is recorded as “binds”.

As for B2, the binding result is listed as “no binding”.

B16: the binding result is listed as “binds”.

Turning to B3, the binding result is “no binding”.

Regarding B4, the binding result is on record as “no binding”.

B6: the binding result is listed as “no binding”.

In the case of B17, the binding result is “binds”.

As for B19, the binding result is listed as “no binding”.

Regarding B7, the binding result is reported as “no binding”.

As for B20, the binding result is “no binding”.

Regarding B8, the binding result is recorded as “no binding”.

As for B9, the binding result was “no binding”.

Regarding B10, the binding result was “no binding”.

Regarding B11, the binding result is “no binding”.

For B13, the binding result is reported as “no binding”.
